Test results published in the supplement of paper PMC7877785.
± gives the uncertainty stated by the source.

Test: self-splicing fitness, log relative to wild type (ln ratio); higher = more splicing; Tetrahymena group I intron in knt gene, E. coli kanamycin selection, DiMSum; sequences stand for … in CUCUCU…GGAGGGAAAAGUUAUCAGGCAUGCACCUGGUAGCUAGUCUUUAAACCAAUAGAUUGCAUCGGUUUAAAAGGCAAGACCGUCAAAUUGCGGGAAAGGGGUCAACAGCCGUUCAGUACCAAGUCUCAGGGGAAACUUUGAGAUGGCCUUGCAAAGGGUAUGGUAAUAAGCUGACGGACAUGGUCCUAACCACGCAGCCAAGUCCUAAGUCAACAGAUCUUCUGUUGAUAUGGAUGCAGUUCACAGACUAAAUGUCGGUCGGGGAAGAUGUAUUCUUCUCAUAAGAUAUAGUCGGACCUCUCCUUAAUGGGAGCUAGCGGAUGAAGUGAUGCAACACUGGAGCCGCUGGGAACUAAUUUGUAUGCGAAAGUAUAUUGAUUAGUUUUGGAGUACUCGUGGUCG
Method in brief: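 Pooled colonies went to amplicon sequencing on an Illumina HiSeq 2500 after six replicate transformations. The plates were LB agar with 100 μg/mL carbenicillin, 50 μM IPTG and 0.2% rhamnose, with or without 25 μg/mL kanamycin, incubated overnight at 37°C or 30°C. The E. coli BL21(DE3) library had all eight P1ex-region intron nucleotides randomised, the intron placed in the knt kanamycin-resistance gene on pET-22b(+). DiMSum fitness is the error-weighted combination of replicate fold changes, kanamycin against none, normalised to wild type.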

Sequence	self-splicing fitness (ln) (30 °C)	self-splicing fitness (ln) (37 °C)
CCUGAGCAAUAUUACGGAGC	-1.59 ± 0.47	-1.9 ± 0.38
CCUGAGCAAUAUUACGGGAC	-4.19 ± 0.46	-2.08 ± 0.27
CCUGAGCAAUAUUACGGGAG	-4.51 ± 0.27	-2.65 ± 0.2
CCUGAGCAAUAUUACGGGGC	-3.49 ± 0.28	–
CCUGAGCAAUAUUACGGUGC	-2.51 ± 0.25	-2.15 ± 0.43
CCUGAGCAAUAUUACGUAAA	–	-2.49 ± 0.33
CCUGAGCAAUAUUACGUAUU	-2.38 ± 0.16	-2.98 ± 0.21
CCUGAGCAAUAUUACGUCAC	–	-1.54 ± 0.31
CCUGAGCAAUAUUACGUCAG	-2.64 ± 0.099	-2.19 ± 0.099
CCUGAGCAAUAUUACGUCUC	–	-3.42 ± 0.37
CCUGAGCAAUAUUACGUGAU	-3.68 ± 0.24	-3.54 ± 0.33
CCUGAGCAAUAUUACGUGGA	-3.5 ± 0.2	-2.03 ± 0.18
CCUGAGCAAUAUUACGUGUC	-4.13 ± 0.21	-2 ± 0.13
CCUGAGCAAUAUUACGUUCA	-3.2 ± 0.43	-2.59 ± 0.32
CCUGAGCAAUAUUACGUUCC	-2.52 ± 0.28	-2.5 ± 0.42
CCUGAGCAAUAUUACGUUCG	-3.43 ± 0.26	-2.87 ± 0.38
CCUUAGCAAUAUUACGACGC	-3.94 ± 0.33	-2.51 ± 0.29
CCUUAGCAAUAUUACGAGGA	-2.8 ± 0.25	-1.69 ± 0.27
CCUUAGCAAUAUUACGAGGC	-4.12 ± 0.29	-1.6 ± 0.27
CCUUAGCAAUAUUACGCUAA	-3.35 ± 0.4	-1.97 ± 0.2
CCUUAGCAAUAUUACGCUCC	–	-1.44 ± 0.5
CCUUAGCAAUAUUACGCUCU	-3.8 ± 0.43	-0.731 ± 0.38
CCUUAGCAAUAUUACGCUGU	-3.42 ± 0.2	-2.49 ± 0.19
CCUUAGCAAUAUUACGGACC	-2.33 ± 0.3	–
CCUUAGCAAUAUUACGGAGA	-3.46 ± 0.37	-2.41 ± 0.42

Sequence	self-splicing fitness (ln) (30 °C)	self-splicing fitness (ln) (37 °C)
CCUUAGCAAUAUUACGGGAA	-3.02 ± 0.18	-2.76 ± 0.19
CCUUAGCAAUAUUACGGGAU	-3.68 ± 0.29	-2.68 ± 0.27
CCUUAGCAAUAUUACGGGGA	-3.75 ± 0.29	-2.63 ± 0.23
CCUUAGCAAUAUUACGGGUC	-4.43 ± 0.3	-2.86 ± 0.38
CCUUAGCAAUAUUACGGGUG	-1.5 ± 0.065	-0.759 ± 0.081
CCUUAGCAAUAUUACGGUGU	-3.82 ± 0.24	-2.81 ± 0.23
CCUUAGCAAUAUUACGUACG	-2.45 ± 0.22	-2.2 ± 0.29
CCUUAGCAAUAUUACGUAGA	-4.13 ± 0.34	-0.769 ± 0.17
CCUUAGCAAUAUUACGUCAA	-2.87 ± 0.33	–
CCUUAGCAAUAUUACGUCCA	–	-1.92 ± 0.33
CCUUAGCAAUAUUACGUGUC	-2.66 ± 0.26	-0.776 ± 0.21
CCUUAGCAAUAUUACGUUCA	-3.3 ± 0.47	-2.9 ± 0.47
CCUUAGCAAUAUUACGUUCC	-3.14 ± 0.31	-2.51 ± 0.34
CCUUAGCAAUAUUACGUUGC	-3.68 ± 0.38	-3.31 ± 0.3
CCUUAGCAAUAUUACGUUUU	-4.8 ± 0.31	-2.85 ± 0.28
CGAAAGCAAUAUUACGACAU	-2.721 ± 0.017	-1.41 ± 0.034
CGAAAGCAAUAUUACGACCA	-1.24 ± 0.14	-1.24 ± 0.15
CGAAAGCAAUAUUACGACGA	-0.59 ± 0.094	0.312 ± 0.09
CGAAAGCAAUAUUACGAGAU	-3.54 ± 0.34	-1.55 ± 0.17
CGAAAGCAAUAUUACGAGCG	-0.778 ± 0.098	-0.277 ± 0.11
CGAAAGCAAUAUUACGCCGG	-0.615 ± 0.14	0.34 ± 0.17
CGAAAGCAAUAUUACGCCUU	-2.73 ± 0.44	-1.11 ± 0.28
CGAAAGCAAUAUUACGCUGG	-1.66 ± 0.11	-0.903 ± 0.14
CGAAAGCAAUAUUACGGCGU	-0.379 ± 0.074	0.313 ± 0.11
CGAAAGCAAUAUUACGGCUA	-1.72 ± 0.13	-1.6 ± 0.14

Sequence	self-splicing fitness (ln) (30 °C)	self-splicing fitness (ln) (37 °C)
CGAAAGCAAUAUUACGGGUG	0.0165 ± 0.043	0.189 ± 0.063
CGAAAGCAAUAUUACGGUCC	-0.283 ± 0.087	-0.129 ± 0.13
CGAAAGCAAUAUUACGGUGG	-0.576 ± 0.046	0.0831 ± 0.066
CGAAAGCAAUAUUACGUAAA	-2.45 ± 0.23	-1.92 ± 0.31
CGAAAGCAAUAUUACGUAUC	-3.76 ± 0.2	-3.21 ± 0.23
CGAAAGCAAUAUUACGUCGG	-0.496 ± 0.06	-0.0301 ± 0.071
CGAAAGCAAUAUUACGUCUA	-0.692 ± 0.25	-0.962 ± 0.17
CGAAAGCAAUAUUACGUGGG	-2.3 ± 0.098	-2.46 ± 0.14
CGAAAGCAAUAUUACGUGUC	-3.94 ± 0.34	-2.71 ± 0.22
CGACAGCAAUAUUACGAAAA	-3.75 ± 0.26	-1.93 ± 0.2
CGACAGCAAUAUUACGAACA	-2.16 ± 0.14	-0.404 ± 0.11
CGACAGCAAUAUUACGACGA	-1.01 ± 0.12	0.0299 ± 0.14
CGACAGCAAUAUUACGACGC	-2.21 ± 0.11	-0.587 ± 0.12
CGACAGCAAUAUUACGAGAU	-3.16 ± 0.23	-2.01 ± 0.21
CGACAGCAAUAUUACGAGGU	-3.14 ± 0.33	-1.73 ± 0.2
CGACAGCAAUAUUACGAUAG	-0.383 ± 0.06	-0.728 ± 0.07
CGACAGCAAUAUUACGAUGA	-0.751 ± 0.075	-0.41 ± 0.075
CGACAGCAAUAUUACGAUGU	-2.74 ± 0.15	-2.59 ± 0.18
CGACAGCAAUAUUACGCCCC	-1.19 ± 0.16	0.564 ± 0.24
CGACAGCAAUAUUACGCGAC	–	-2.98 ± 0.26
CGACAGCAAUAUUACGGAAU	-2.5 ± 0.24	-2.54 ± 0.26
CGACAGCAAUAUUACGGAUA	-2.09 ± 0.14	-1.91 ± 0.15
CGACAGCAAUAUUACGGAUG	-0.977 ± 0.051	-0.0449 ± 0.059
CGACAGCAAUAUUACGGAUU	-3.77 ± 0.17	-1.73 ± 0.099
CGACAGCAAUAUUACGGCCC	-0.607 ± 0.19	-0.549 ± 0.24

Sequence	self-splicing fitness (ln) (30 °C)	self-splicing fitness (ln) (37 °C)
CGACAGCAAUAUUACGGCUA	-2.5 ± 0.2	-1.39 ± 0.14
CGACAGCAAUAUUACGGGAU	-3.98 ± 0.18	-2.52 ± 0.19
CGACAGCAAUAUUACGGGCC	-2.97 ± 0.17	-2.43 ± 0.23
CGACAGCAAUAUUACGUCUU	-0.458 ± 0.066	-0.212 ± 0.073
CGACAGCAAUAUUACGUGGC	-3.68 ± 0.28	-3.29 ± 0.26
CGACAGCAAUAUUACGUUUC	-3.98 ± 0.24	-2.23 ± 0.15
CGAGAGCAAUAUUACGAAAG	-3.64 ± 0.4	-1.55 ± 0.31
CGAGAGCAAUAUUACGACUG	-1.29 ± 0.15	-0.27 ± 0.19
CGAGAGCAAUAUUACGAUAA	-4.29 ± 0.46	-2.37 ± 0.45
CGAGAGCAAUAUUACGAUUU	-1.8 ± 0.33	-2.17 ± 0.37
CGAGAGCAAUAUUACGCCAA	-1.49 ± 0.2	-1.99 ± 0.38
CGAGAGCAAUAUUACGCCGG	-2.74 ± 0.41	-1.27 ± 0.45
CGAGAGCAAUAUUACGCGCU	-2.04 ± 0.38	–
CGAGAGCAAUAUUACGCGGC	–	-1.9 ± 0.41
CGAGAGCAAUAUUACGCUUA	-2.49 ± 0.23	-2.13 ± 0.46
CGAGAGCAAUAUUACGCUUU	–	-2.33 ± 0.39
CGAGAGCAAUAUUACGGAGU	-4.55 ± 0.42	-1.6 ± 0.2
CGAGAGCAAUAUUACGGGAA	-1.44 ± 0.33	-1.71 ± 0.44
CGAGAGCAAUAUUACGGUGG	-1.72 ± 0.34	-2.24 ± 0.34
CGAGAGCAAUAUUACGGUUU	-3.15 ± 0.15	-2.58 ± 0.21
CGAGAGCAAUAUUACGUACG	-3.14 ± 0.17	-2.28 ± 0.29
CGAGAGCAAUAUUACGUCUG	-1.33 ± 0.24	-1.31 ± 0.17
CGAGAGCAAUAUUACGUGAU	-4.24 ± 0.24	-2.58 ± 0.2
CGAGAGCAAUAUUACGUGCU	-4.22 ± 0.46	–
